According to patent US8497352B2, “Use of Wnt5-α peptide derivates for the treatment of melanoma and gastric cancer” (Wntresearch AB, priority 2008, dated 2013):

Columns and labels:
Format in all cases: cell-based, human
A2058 melanoma cells [1] = assay: Cell adhesion assay, A2058 cells; conditions: recombinant Wnt-5a, 60 min adhesion
Method: Cells pre-treated and stimulated as described below were detached with Versene, re-suspended in serum-free RPMI medium and samples containing 30,000 cells from each treatment group were added to each well of a 96-well plate The cells were allowed to adhere for 60 min at 37° C. in a humidified atmosphere of 5% carbon dioxide after which the non-adherent cells were washed away with PBS. The adherent cells were fixed in 1% glutaraldehyde for 10 min at room temperature and then stained with 0.5% crystal violet in 20% methanol for 10 min. Finally the stain from each group of cells was dissolved in 50% acetic acid. The amount of dissolved stain from each well was thereafter measured in a Fluostar plate reader (BMG Lab Technologies GmbH, Offenberg, Germany) at 544 nm. The individual samples from each separate experiment were analysed in quadruplicate and the accumulated data were based on 5 separate experiments. The results are illustrated in FIG. 4. • A) A2058 melanoma cells were stimulated with the indicated concentrations of Wnt-5a, detached with Versene and resuspended as single cells in serum-free medium in the presence or absence of recombinant Wnt-5a at the indicated concentrations. Cells were then allowed to adhere in a 96-well plate. After a period of 60 min the non-adherent cells were washed away while the adherent cells were stained and their number determined. This number is presented as a percentage of the control (no Wnt-5a) stimulation (FIG. 4A) • B) A2058 melanoma cells were cultured to confluence in a 12-well plate after which a scratch was inflicted in each well, the medium was changed to fresh serum-free medium lacking (closed circles) or containing 0.2 μg/ml Wnt-5a (open squares). (FIG. 4B) • C) A2058 melanoma cells were cultured to confluence in a 12-well plate after which a scratch was inflicted to each well, the medium was changed to fresh serum-free medium in the absence of any additive (closed circle), the presence of 0.2 μg/ml Wnt-5a alone (open squares) or the presence of 0.2 μg/ml Wnt-5a with 100 μM Box5 (open triangle). (FIG. 4C) • D) HTB63 melanoma cells were cultured to confluence in a 12-well dish after which a scratch was inflicted to each well, the medium was changed to fresh serum-free medium (closed circle), conditioned medium (open squares) or conditioned medium supplemented with 100 μM Box5 (open triangle). To record changes in migration in panels B-D, a picture was taken from each scratch/well from the same area of cells after 0, 16, 24, 40 or 48 hours, and the wound-healing was expressed as percentage of wound area closed. […] The cells were then allowed to invade for 24 hours after which the attached cells on the lower side of the membrane were counted. […]

PKC = assay: MARCKS phosphorylation (PKC activity) in A2058 cells, Western blot; conditions: rWnt-5a 0.2 μg/ml
Method: The cells were either directly lysed in 1× Laemmli buffer containing DTT and boiled for 10 min, or lysed in buffer containing 50 mM Tris-HCl (pH 7.5), 1% Triton X-100, 100 mM NaCl, 10 mM MgCl2, 20% glycerol, 1 mM Na3VO4, and protease inhibitors (20 μg/ml aprotinin, 1 μg/ml leupeptin, 2.5 mM benzamidine, and 2 mM pefabloc). Cell treated with lysis buffer were centrifuged at 15,000 rpm for 5 min at 4° C. The protein content in each sample was determined and adjusted to ensure equal loading of protein in each lane. Thereafter, 50 mM DTT and 5× concentrated Laemmli buffer was added and the samples boiled for 5 min. The samples were separated by SDS polyacrylamide gel electrophoresis and subsequently transferred to PVDF membranes. For immunoblotting the membranes were blocked in PBS supplemented with 0.2% Tween 20 and 1% non-fat milk for Wnt-5a or 3% non-fat milk as for all other antibodies for 1 h. […] Finally, the Ab-antigen complexes were detected using enhanced chemiluminescence. […]
In the present study the level of PKC auto-phosphorylation (Weeraratna et al., 2002, Dissanayake et al., 2007) was not estimated since its relation to PKC kinase activity is unclear. Instead the effects of Wnt-5a and Box5 on the phosphorylation of the endogenous PKC substrate MARCKS were analyzed as a direct means of estimating the activity level of PKC in the melanoma cells. […]

A2058 melanoma cells [2] = assay: BD Matrigel invasion chamber assay, A2058 cells; conditions: 0.2 μg/ml Wnt-5a, 24 hours
Method: Cell invasion was analyzed using the BD Matrigel™ invasion chamber assay (BD Biosciences, Bedford, Mass.). Prior to the initiation of each experiment, the cells were detached with Versene and re-suspended as single cells in serum-free RPMI medium. As indicated, cells were pre-incubated with the Box5 peptide (100 μM) or control solvent for 40 min with continuous agitation. An aliquot of the cell suspension containing 25,000 cells and 100 μM Box5 or control solvent was then added to the upper transwell chamber, and the lower chamber was filled with serum-containing (10%) medium. The invasion chambers were shaken horizontally for 5 min to ensure even distribution of the cells in suspension and subsequently across the membrane surface. The cells were allowed to invade for the periods of time indicated at 37° C. in a humidified atmosphere of 5% CO2. The medium was discarded and cells were fixed in 4% paraformaldehyde for 10 min. The cells were stained with 0.5% crystal violet in 20% methanol for 10 min and the non-invading cells on the inner side of the membrane were removed with a cotton-tipped applicator. The membrane was cut out of the chamber using a scalpel blade and the stained cells on the lower chamber side of the membrane were counted.

B1: Wnt-5a: human recombinant Wnt-5a protein from R&D Systems (protein, UniProt P41221 62-380, looked up)
Protein Wnt-5a: IIGAQPLCSQLAGLSQGQKKLCHLYQDHMQYIGEGAKTGIKECQYQFRHRRWNCSTVDNTSVFGRVMQIGSRETAFTYAVSAAGVVNAMSRACREGELSTCGCSRAARPKDLPRDWLWGGCGDNIDYGYRFAKEFVDARERERIHAKGSYESARILMNLHNNEAGRRTVYNLADVACKCHGVSGSCSLKTCWLQLADFRKVGDALKEKYDSAAAMRLNSRGKLVQVNSRFNSPTTQDLVYIDPSPDYCVRNESTGSLGTQGRLCNKTSEGMDGCELMCCGRGYDQFKTVQTERCHCKFHWCCYVKCKKCTEIVDQFVCK
In the case of B1, the “Concentration giving maximal effect on adhesion of A2058 cells” value (A2058 melanoma cells [1]) is reported as 0.2 µg/mL, the “Effect on adhesive capacity of A2058 cells” value (A2058 melanoma cells [1]) is reported as “enhanced” and the “Effect on phosphorylation of MARCKS” value (PKC) is reported as “increased phosphorylation”. The “Effect on invasion of A2058 cells” value (A2058 melanoma cells [2]) was “stimulate”.
